Results: paper PMC5812316 (Biophysics and Physicobiology, 2018)
Residue numbers refer to the chain shown, from its start. In names and notes the source's numbering stands.

B1: Photozipper variant E159K (domain or fragment)
chain: GSISSELTEAQKVERRERNREHAKRSRVRKKFLLESLQQSVNELNHKNNSLKESIREHLGPRGDSLIAQSSPEADTLLTDNPSKANRILEDPDYSLVKALQMAQQNFVITDASLPDNPIVYASRGFLTLTGYSLDQILGRNCRFLQGPETDPRAVDKIRNAITKGVDTSVCLLNYRQDGTTFWNLFFVAGLRDSKGNIVNYVGVQSKVSEDYAKLLVNEQNIEYKGVRTSNMLRRK
B2: Photozipper variant E159R/K164R (domain or fragment)
chain: B1 chain with K47R, K52R
B3: Photozipper variant K164E (domain or fragment)
chain: B1 chain with K47E, K52E

Target: the molecule itself
Test: SEC

| Protein | stoichiometry N |
| --- | --- |
| B1 | 2 |
| B2 | 2 |
| B3 | 2 |
